This is an account of results in the DeepSol protein solubility set.

This series can be described thus: soluble on expression in E. coli; label from the status in PepcDB or PDB records.
On to “MSLDSSLFRKPSPRPLRQPTTPFHLQKTLILDLDETLIHSTSRPIHYPGGSSGGGGLLGLSVGGVFGSGRANEGHTVEVVVNGRSTMYHVYKRPYVDHFLKKVASWYTLVIFTASMPEYADPVIDWLDGGRNLFARKLYRENCHVQPNGSYIKDLTLVEKDLSRVCFMDNSPVSYSWNKGRLFSTWRSLEPDRMGTANALPIEGWTSDPNDEALLHSIPVLDSLRFVNDVRRVLGIRGAARARSEGHHHHHH”, for which the “soluble on expression in E. coli” value was “soluble”.
Under “MLRAKVRRIALANQKGGVGKTTTAINLAAYLARLGKRVLLVDLDPQGNATSGLGVRAERGVYHLLQGEPLEGLVHPVDGFHLLPATPDLVGATVELAGAPTALREALRDEGYDLVLLDAPPSLSPLTLNALAAAEGVVVPVQAEYYALEGVAGLLATLEEVRAGLNPRLRLLGILVTMYDGRTLLAQQVEAQLRAHFGEKVFWTVIPRNVRLAEAPSFGKTIAQHAPTSPGAHAYRRLAEEVMARVQEAGSHHHHHH” stands “soluble”; under “METYAVFGNPIAHSKSPFIHQQFAQQLNIEHPYGRVLAPINDFINTLNAFFSAGGKGANVTVPFKEEAFARADELTERAALAGAVNTLMRLEDGRLLGDNTDGVGLLSDLERLSFIRPGLRILLIGAGGASRGVLLPLLSLDCAVTITNRTVSRAEELAKLFAHTGSIQALSMDELEGHEFDLIINATSSGISGDIPAIPSSLIHPGIYCYDMFYQKGKTPFLAWCEQRGSKRNADGLGMLVAQAAHAFLLWHGVLPDVEPVIKQLQEELSALEHHHHHH”, “soluble”.
Under “AHHHHHHGSIIELDEFTRVEGNGKAEIVIENGEVKDARVKIVEGPRFFEILTLGRDYWDVPDLEARICAICYIAHSVASVRAIEKALGIDVPESVEKLRELALWGEIIESHALHLYLLALPDVFGYPDAISMIPRHGELVKEGLTIKAFGNAIRELIGGREIHGINIKPGGFGRYPSEEELEKIAEHSKSLIKFARRIVGIFASQEAGGAVGEVLMATSDYLWGDELIINGERVQYYEVDEVPVGYSFAKHSYYKGNPVFVGALPRLLLKGESIEGEAARMLEEYRDKLESKYVIYNNLAQAIELLYALERVPQLVEEILSEGIERGNGEISQESGEGVGYVEAPRGVLVHHYRIENGKVVWSNTITPTAFNQRLMELSLLEEAKRLYGSESEENMKKRLEVIVRAFDPCISCSVHFVKL” stands “soluble”; under “SNANCKKIGEDSKIIIRQITDNDLELLMAWRSNPLIYKFFYIQKEPLKWEEHYSWWMSRENRVDWIILLRENNTIRKVGSVNVSQLNTDNPEIGILIGEFFLWGKHIGRHSVSLVLKWLKNIGYKKAHARILENNIRSIKLFESLGFKKTKKGRENEWIYEVNL”, “soluble”; under “MGSDKIHHHHHHMSARYLDPKKRHEFVFLFDVRDGNPNGDPDAGNLPRVDPETMHGLVTDVALKRKIRDYIALTREGKPRFAIFVQSRVALNRLILEGFQEAGIEPVSLQLAEEQMANESLLEHLDGLAEAGFSREGGTLYYSGQATTEKEIAKLLMGEEEAVAPFKKELEKLAKELAKAVKGRKITEEDRERAQAKLLERFFDIRMFGAVLSTGLNAGQVRGPVQLTFARSLDPIAPLEVSITRVAITREEDRARKETEMGRKPLVPYGLYRAHGFFNPFLAAKTGVQPEDLEALWDALQHLFELDRSAARGEMTVRGLAVFSHEDAKGNAPAHRLFGLIRVERREGVEAPRSFADYRVRAPKEGSLEAHGFPGVHLAWLVRPEGLEDLPPHVG”, “not soluble”.
The result for “MSLIVKVSPKGSMDQLSQLEVDRLKKSAQSALYQLYRNCSLAVLAAGLKTDNSKALFEQYSDFDIHVLQRERGVKLELINPPEQAFVDGQIITGIQEHLFSVLRDILYISDKYDTLKHINLTNASHITNVVFDILRNARAIAPMKDPNVVVCWGGHSINAIEYQYTREVGYQLGLRELDICTGCGPGAMEGPMKGAAIGHSKQRIKNARYIGLTEPSIIAAEPPNQIVNELVILPDIEKRLEAFVRLGHGIIIFPGGAGTAEELLYILGILLNKENQETPFPLVLTGPSESADYFIKIDEFIAATLGPEAQQKYQIIIDNPAEVARVMKQGMEQVKNHRRTTGDAYQYQWGLKIEPEFQLPFIPTHDVMANLNLHFQSNKAELAANLRKAFSGIVAGNVKSETIKQIEQLGPFHIKGDPHLMELMDNLLGAFVAQHRMKLPGSAYVPCYQIVKEGHHHHHH” reads “soluble”; that for “MTGTYTELIEGSERLSGLTDVDEVIKDLSRLLRKLVKTRWIAVYFFDRERRDFAPARSTGLPASFLPVFREMPLAPDKIPLLKSMLRKRQHLMLTDPGSSDLLTPKLRKLLRNLCVLAVPMVVRTQVIGAVFMARTRDNPPFSDAETAIIRDLVSHAALVVSHMQLFDE”, “not soluble”.
For the sequence “AIASAADDVNKKRKTAKEVEQEECEIYQNVVFNSIVDSNSKHELVDPSLQKLGAKSRGKVTFLLEQASLELVKIDRKWEILNGDEHQQYMKRKNLNPADYRPDIVHQCVLSLLDSPLNKAGYLDLYIHTTNNVLIKVNPQTRIPRTLKRFCGLTVQLLQDLKIFGHGLNKPLLQIIQNPITNHLPDMCWKTVCSYNCENLMSPHKHAQEVLKKDMNILYVIGAMAHGKIVEEWADEELKISSFPLSASAVCHRICSAYEILYEVL”, the “soluble on expression in E. coli” value is “soluble”.
With “MGSDKIHHHHHHMLDIHWLKTFVTLAEHKHFGKAATALHMTQPNVSLHIKQLEQSTRVKLIDRNPFRLTQAGFRLLESSQKTLMELQICQADLNAINDLSQGTLTIAASDIISRLLLIQPFQLFKAEFPGIDFSLLNTTSSQASELVKNAEADLGFVIAQKESQPLHFTELQQIKWCAIGDNLQQWQQANLSVDTPLAEQPTLILLGHDTRTRELLDPALPSLNLPNYRIMEVGSVDAQIDWAEAGFGVAIVPEFSVYTKANLTTKVTPLPQFPTTSLGYIVRQNQILSKAIKQLLYWVNQEIIRSQR”, the “soluble on expression in E. coli” value was “not soluble”.
The result for “MARVVVDAQAARAIGKGAMIVFKKGVVRVEGDIKPGDIVEVYTRGGKFLGKGFANPNSNIMVRIVTKDKDVEINKDLFKRRIKKANEYRKKVLKYTNVYRMVYGEADYLPGLIVDRFNDIASLQISSAGMERFKLDVAEAIMEVEPGIETVFEKNTGRSRRREGLPEIERVLLGKEKYRTIIQEGRAKFIVDMRGQKTGFFLDQRENRLALEKWVQPGDRVLDVFTYTGGFAIHAAIAGADEVIGIDKSPRAIETAKENAKLNGVEDRMKFIVGSAFEEMEKLQKKGEKFDIVVLDPPAFVQHEKDLKAGLRAYFNVNFAGLNLVKDGGILVTCSCSQHVDLQMFKDMIIAAGAKAGKFLKMLEPYRTQAPDHPILMASKDTEYLKCLFLYVEDMR” reads “soluble”.
Under “SDQVFVMGHRYPDMDVIGSSLGVMRIAEMNNRNAYVVVEPGKMSPDVKRLMNEIEEYPNVIKNIVTPQVALENITEKSLLVVVDTHKPSMVINKELLDSATNVVVVDHHRRSEEFVGNPVLVYIEPYASSTAELITELFEYQPDLEQVGKIEATALLSGIVVDTKNFTLRTGSRTFDAASYLRSLGADTILVQQFLKEDI” stands “not soluble”; under “AATSRTERIWPGGVIPYVIGGNFTGSQRAMFKQAMRHWEKHTCVTFIERSDEESYIVFTYRPCGCCSYVGRRGNGPQAISIGKNCDKFGIVVHELGHVIGFWHEHTRPDRDNHVTIIRENIQPGQEYNFLKMEPGEVNSLGERYDFDSIMHYARNTFSRGMFLDTILPSRDDNGIRPAIGQRTRLSKGDIAQARKLYRCPA”, “soluble”.
The result for “MAHHHHHHSLAPLISVLDLTPVSTGQQPGEALRHTLELAEVADSYQYTRFWIAEHHNSGAFVSAATEILIALAAARTGRIRVGSGGVMLPNHSPLKVAENFMSLEALFPGRIDLGLGRAPGTDGRTALALRRSREALAADDFPTQIALLRAFAGETPWPAGSVFDGVLAEPRGVKLPPLWILGSSLYGAQLAGELGVGYAFAYHFSQEDPAVAVQTYHRHFRPGPLAEPYAILGVNALAAPTEDEARDLSLTSAALSLGILSGQRGVLRSPEEARQWLQEMDTDPAKLLKKARIGTPEQVWASLQELGESTGAQEMLVTTYAHDPLKRQQSYRLLAQAAGMTPQKEEG” reads “soluble”; that for “GHMKSEKEKMLAGHLYNPADLELVKERERARRLVRLYNETLETEYDKRTGLLKELFGSTGERLFIEPNFRCDYGYNIHVGENFFMNFDGVILDVCEVRIGDHCFIGPGVHIYTATHPLDPHERNSGLEYGKPVVIGHNVWIGGRAVINPGVTIGDNAVIASGAVVTKDVPANAVVGGNPAKVIKWLK”, “soluble”.
For the sequence “MGSDKIHHHHHHMYIFRSIHEIINTIFVAKGLLVEMFEKRKVLSFRYSDALALLKEDENRLKILIEKEIIHQNGNFVELDARFLDFFELLLEANEEINTATVEENIEYLHELMDYYLKEKIQSRKESYVRNIKITFQKLARVTIRNIINLQHNIDNAFKHEPTYQIKIAKLQNLDKKRINIQRLIDSTEHLILHEERDFFRQATDEELTRILLELRQELQLSAHSLIRAQQDIINYLNQIKNQVILVEKIRKVKYLQDQFELRARSNLSEIMERERSLLLEGNTQASFKLSPSYLASDEVRPIILKVISNQKYREIVRKNEAGAFSEEDLEAQAMYEEVINLDEVVTAFVQSGAEARWKGEPVSDLFSFLLQYHFHREVDEKERTTFFCQIVSLYESQLEIRNEFGLHNQYEYAKIYPL”, the “soluble on expression in E. coli” value is “not soluble”.
Regarding “MRGSHHHHHHGSMKRAVITGLGIVSSIGNNQQEVLASLREGRSGITFSQELKDSGMRSHVWGNVKLDTTGLIDRKVVRFMSDASIYAFLSMEQAIADAGLSPEAYQNNPRVGLIAGSGGGSPRFQVFGADAMRGPRGLKAVGPYVVTKAMASGVSACLATPFKIHGVNYSISSACATSAHCIGNAVEQIQLGKQDIVFAGGGEELCWEMACEFDAMGALSTKYNDTPEKASRTYDAHRDGFVIAGGGGMVVVEELEHALARGAHIYAEIVGYGATSDGADMVAPSGEGAVRCMKMAMHGVDTPIDYLNSEGTSTPVGDVKELAAIREVFGDKSPAISATKAMTGHSLGAAGVQEAIYSLLMLEHGFIAPSINIEELDEQAAGLNIVTETTDRELTTVMSNSFGFGGTNATLVMRKLKD”, the “soluble on expression in E. coli” value was “soluble”.
The result for “YIQLEGEKFNESARVFTEYLKTKTSDEIPSLLQSYSKSLTISAHLKRDIVDKRLPLVHDLDIKDGKLSNYIVMLDMSVSTADGKQVTVQFVHGVDVYKEAKNI” reads “not soluble”.
For “DALAVALLQARGFSAEDFALSHPGGALGRKLLLKLSDIMHFGNALPKVSPDALIRDALLEISEKGLGMTAIVDEHDAMLGIFTDGDLRRTLDKRIDIHTTAIGEVMTKNPTTAHPEMLAVEGLNLMQNKNINALILCKEDKIVGALNMHDLLKAGVM”, the “soluble on expression in E. coli” value is reported as “not soluble”.
For “MRRVEKVIIVEGRSDKQKVAAVLNEPVVIVCTNGTISDARLEELADELEGYDVYLLADADEAGEKLRRQFRRMFPEAEHLYIDRAYREVAAAPIWHLAQVLLRARFDVRIESLMRGRGE”, the “soluble on expression in E. coli” value is reported as “soluble”.
As to “MGSDKIHHHHHHMAIACVFTRASCGVEAPRVTVEVHLSNGLPAFNLVGLPETSVKEAKERVRSALINAGFEFPQKRITVNLAPADLPKQGGRYDLPIAVGILAASNQVPAKALHQCEFVGGLALSGQIRPCSGLLPAIIAARNDQHHFFMPIENRHEAELVGYKHSYFVAHLQNLAAFLHGQAQLPLLDTLPEWIEEEIQAQSSLCMSDVIGQYQAKHGLEIAAAGGHNMLFIGPPGTGKSMLANRIIPLLPKLTYDEAIEVAAIHSVAGLHVKPQNFLNRPFRSPHHTSSSIALIGGGSHPKPGEISLAHRGILFLDEIAEFPRKVLDCLREPLETGQVEISRAAAKLTFLSRFQLIAAMNPSPCGDTERARSTPDQIQRYLSRLSGPFLDRFDLTVDVPKLPAGTLTQQHQPSESSVEIAKRVKQARDLQLSRSGVLNSELTPKQLKQDGAITQPDLAFLEQSVVSLGLSVRSFHRIQRVSRTIADLQQSPTTERSHIAQALGYRAMDRLLAKLNQQ”, the “soluble on expression in E. coli” value is recorded as “not soluble”.
